Here are results for four molecules from PMC6542941.

The target in experiment [1] is T1, human acid-sensing ion channel 1a wild type hASIC1a-G212 (human) (UniProt P78348).
T1 sequence: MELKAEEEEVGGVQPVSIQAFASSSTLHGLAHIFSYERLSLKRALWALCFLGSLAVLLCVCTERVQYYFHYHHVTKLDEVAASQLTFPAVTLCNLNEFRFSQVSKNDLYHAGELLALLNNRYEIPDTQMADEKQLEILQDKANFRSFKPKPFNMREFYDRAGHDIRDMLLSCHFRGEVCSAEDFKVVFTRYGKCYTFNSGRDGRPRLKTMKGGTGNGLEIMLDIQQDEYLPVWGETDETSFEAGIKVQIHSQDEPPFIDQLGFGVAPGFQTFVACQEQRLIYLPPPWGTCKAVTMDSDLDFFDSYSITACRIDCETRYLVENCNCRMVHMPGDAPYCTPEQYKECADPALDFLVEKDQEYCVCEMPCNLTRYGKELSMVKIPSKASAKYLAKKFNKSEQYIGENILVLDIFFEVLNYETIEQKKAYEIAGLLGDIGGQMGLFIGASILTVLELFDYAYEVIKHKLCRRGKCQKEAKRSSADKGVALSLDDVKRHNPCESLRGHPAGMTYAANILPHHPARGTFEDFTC

In experiment [2] the target is T2, human acid-sensing ion channel 1a variant hASIC1a-D212 (human) (UniProt P78348).
T2 sequence: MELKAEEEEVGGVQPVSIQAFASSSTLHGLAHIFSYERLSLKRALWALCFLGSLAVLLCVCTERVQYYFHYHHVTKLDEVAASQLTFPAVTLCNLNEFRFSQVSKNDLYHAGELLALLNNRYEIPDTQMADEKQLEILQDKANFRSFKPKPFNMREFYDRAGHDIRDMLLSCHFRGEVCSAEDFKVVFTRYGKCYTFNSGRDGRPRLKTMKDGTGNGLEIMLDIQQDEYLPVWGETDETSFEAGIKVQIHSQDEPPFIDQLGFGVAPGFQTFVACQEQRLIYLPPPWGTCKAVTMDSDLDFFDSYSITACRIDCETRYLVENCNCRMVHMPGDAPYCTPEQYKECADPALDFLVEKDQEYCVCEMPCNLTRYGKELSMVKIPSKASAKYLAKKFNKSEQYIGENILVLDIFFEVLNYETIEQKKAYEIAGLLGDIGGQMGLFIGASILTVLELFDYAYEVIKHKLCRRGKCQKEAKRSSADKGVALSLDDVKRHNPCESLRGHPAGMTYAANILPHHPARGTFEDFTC

Another experiment addresses human ASIC2a (human) (UniProt Q16515).
Chain of UniProt Q16515 (Q16515 whole entry): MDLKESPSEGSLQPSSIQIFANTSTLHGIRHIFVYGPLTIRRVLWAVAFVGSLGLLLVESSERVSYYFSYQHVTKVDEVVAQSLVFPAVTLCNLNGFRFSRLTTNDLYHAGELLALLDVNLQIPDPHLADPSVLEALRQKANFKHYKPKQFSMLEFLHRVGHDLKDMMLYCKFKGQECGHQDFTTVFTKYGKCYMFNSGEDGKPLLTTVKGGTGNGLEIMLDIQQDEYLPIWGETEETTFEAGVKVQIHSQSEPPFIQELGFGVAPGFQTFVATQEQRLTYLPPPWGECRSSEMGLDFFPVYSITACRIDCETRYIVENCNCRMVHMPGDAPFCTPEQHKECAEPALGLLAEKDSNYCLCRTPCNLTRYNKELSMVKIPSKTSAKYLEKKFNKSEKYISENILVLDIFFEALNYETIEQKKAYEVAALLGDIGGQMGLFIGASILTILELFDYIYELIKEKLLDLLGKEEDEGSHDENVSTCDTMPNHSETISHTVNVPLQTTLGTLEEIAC

Regarding “Psalmotoxin1 (from UniProt P60514 1-40) (peptide)”, the IC50 of inhibition of the pH5.0-induced current, whole-cell patch-clamp of CHO cells; PcTx1 pre-applied 60 s in the conditioning pH 7.4 solution came out at 1.83 nM in experiment [1] and 1.19 nM in experiment [2].

B1: human acid-sensing ion channel 1a variant hASIC1a-D212 (receptor)
chain: MELKAEEEEVGGVQPVSIQAFASSSTLHGLAHIFSYERLSLKRALWALCFLGSLAVLLCVCTERVQYYFHYHHVTKLDEVAASQLTFPAVTLCNLNEFRFSQVSKNDLYHAGELLALLNNRYEIPDTQMADEKQLEILQDKANFRSFKPKPFNMREFYDRAGHDIRDMLLSCHFRGEVCSAEDFKVVFTRYGKCYTFNSGRDGRPRLKTMKDGTGNGLEIMLDIQQDEYLPVWGETDETSFEAGIKVQIHSQDEPPFIDQLGFGVAPGFQTFVACQEQRLIYLPPPWGTCKAVTMDSDLDFFDSYSITACRIDCETRYLVENCNCRMVHMPGDAPYCTPEQYKECADPALDFLVEKDQEYCVCEMPCNLTRYGKELSMVKIPSKASAKYLAKKFNKSEQYIGENILVLDIFFEVLNYETIEQKKAYEIAGLLGDIGGQMGLFIGASILTVLELFDYAYEVIKHKLCRRGKCQKEAKRSSADKGVALSLDDVKRHNPCESLRGHPAGMTYAANILPHHPARGTFEDFTC
For the molecule B1, in the experiment with human ASIC2a (human), the IpH5.8/IpH4.0 current ratio of co-transfected CHO cells, whole-cell patch-clamp stood at 0.43.

B2: human acid-sensing ion channel 1a wild type hASIC1a-G212 (receptor)
chain: MELKAEEEEVGGVQPVSIQAFASSSTLHGLAHIFSYERLSLKRALWALCFLGSLAVLLCVCTERVQYYFHYHHVTKLDEVAASQLTFPAVTLCNLNEFRFSQVSKNDLYHAGELLALLNNRYEIPDTQMADEKQLEILQDKANFRSFKPKPFNMREFYDRAGHDIRDMLLSCHFRGEVCSAEDFKVVFTRYGKCYTFNSGRDGRPRLKTMKGGTGNGLEIMLDIQQDEYLPVWGETDETSFEAGIKVQIHSQDEPPFIDQLGFGVAPGFQTFVACQEQRLIYLPPPWGTCKAVTMDSDLDFFDSYSITACRIDCETRYLVENCNCRMVHMPGDAPYCTPEQYKECADPALDFLVEKDQEYCVCEMPCNLTRYGKELSMVKIPSKASAKYLAKKFNKSEQYIGENILVLDIFFEVLNYETIEQKKAYEIAGLLGDIGGQMGLFIGASILTVLELFDYAYEVIKHKLCRRGKCQKEAKRSSADKGVALSLDDVKRHNPCESLRGHPAGMTYAANILPHHPARGTFEDFTC
Take B2: the IpH5.8/IpH4.0 current ratio of co-transfected CHO cells, whole-cell patch-clamp with human ASIC2a (human) was determined as 0.41.

B3: Mambalgin1 (peptide)
chain: LKCYQHGKVVTCHRDMKFCYHNTGMPFRNLKLILQGCSSSCSETENNKCCSTDRCNK
Consider B3, for which the IC50 of inhibition of the pH5.0-induced current, whole-cell patch-clamp of CHO cells; Mambalgin1 pre-applied 60 s in the conditioning pH 7.4 solution in experiment [1] was 10.5 nM; in experiment [2] it was 21.7 nM.
